{"source": "paper PMC9214875", "key": {"[1]": {"assay": "Blue Native PAGE, MHCC97H and HCCLM3", "settings": "glycan lost; control: wild type"}, "[2]": {"assay": "cycloheximide chase, Western blot, MHCC97H", "settings": "glycan lost; control: wild type (G-MerTK)"}, "[3]": {"assay": "nuclear/cytoplasmic fractionation, Western blot, LO2 and MHCC97H", "settings": "glycan lost; control: wild type"}, "[4]": {"assay": "MG132 rescue of MerTK level, Western blot", "settings": "glycan lost; control: no TM"}, "[5]": {"assay": "MerTK IP, anti-ubiquitin blot, MHCC97H and HCCLM3", "settings": "glycan lost; control: untreated"}, "[6]": {"assay": "nuclear/cytoplasmic fractionation, Western blot, MHCC97H", "settings": "glycan lost; control: untreated"}, "[7]": {"assay": "Blue Native PAGE, endogenous MerTK, MHCC97H", "settings": "glycan lost; control: untreated / with glucose"}}, "data": [{"protein": "MerTK: N294Q (protein) parent chain: MGPAPLPLLLGLFLPALWRRAITEAREEAKPYPLFPGPFPGSLQTDHTPLLSLPHASGYQPALMFSPTQPGRPHTGNVAIPQVTSVESKPLPPLAFKHTVGHIILSEHKGVKFNCSISVPNIYQDTTISWWKDGKELLGAHHAITQFYPDDEVTAIIASFSITSVQRSDNGSYICKMKINNEEIVSDPIYIEVQGLPHFTKQPESMNVTRNTAFNLTCQAVGPPEPVNIFWVQNSSRVNEQPEKSPSVLTVPGLTEMAVFSCEAHNDKGLTVSKGVQINIKAIPSPPTEVSIRNSTAHSILISWVPGFDGYSPFRNCSIQVKEADPLSNGSVMIFNTSALPHLYQIKQLQALANYSIGVSCMNEIGWSAVSPWILASTTEGAPSVAPLNVTVFLNESSDNVDIRWMKPPTKQQDGELVGYRISHVWQSAGISKELLEEVGQNGSRARISVQVHNATCTVRIAAVTRGGVGPFSDPVKIFIPAHGWVDYAPSSTPAPGNADPVLIIFGCFCGFILIGLILYISLAIRKRVQETKFGNAFTEEDSELVVNYIAKKSFCRRAIELTLHSLGVSEELQNKLEDVVIDRNLLILGKILGEGEFGSVMEGNLKQEDGTSLKVAVKTMKLDNSSQREIEEFLSEAACMKDFSHPNVIRLLGVCIEMSSQGIPKPMVILPFMKYGDLHTYLLYSRLETGPKHIPLQTLLKFMVDIALGMEYLSNRNFLHRDLAARNCMLRDDMTVCVADFGLSKKIYSGDYYRQGRIAKMPVKWIAIESLADRVYTSKSDVWAFGVTMWEIATRGMTPYPGVQNHEMYDYLLHGHRLKQPEDCLDELYEIMYSCWRTDPLDRPTFSVLRLQLEKLLESLPDVRNQADVIYVNTQLLESSEGLAQGSTLAPLDLNIDPDSIIASCTPRAAISVVTAEVHDSKPHEGRYILNGGSEEWEDLTSAPSAAVTAEKNSVLPGERLVRNGVSWSHSSMLPLGSSLPDELLFADDSSEGSEVLM", "values": [{"measurement": "oligomerisation", "setting": "[1]", "result": "decreases"}, {"measurement": "degradation_or_half_life", "setting": "[2]", "result": "decreases"}, {"measurement": "localisation_or_trafficking", "setting": "[3]", "result": "increases"}]}, {"protein": "MerTK: TM (protein) parent chain: MGPAPLPLLLGLFLPALWRRAITEAREEAKPYPLFPGPFPGSLQTDHTPLLSLPHASGYQPALMFSPTQPGRPHTGNVAIPQVTSVESKPLPPLAFKHTVGHIILSEHKGVKFNCSISVPNIYQDTTISWWKDGKELLGAHHAITQFYPDDEVTAIIASFSITSVQRSDNGSYICKMKINNEEIVSDPIYIEVQGLPHFTKQPESMNVTRNTAFNLTCQAVGPPEPVNIFWVQNSSRVNEQPEKSPSVLTVPGLTEMAVFSCEAHNDKGLTVSKGVQINIKAIPSPPTEVSIRNSTAHSILISWVPGFDGYSPFRNCSIQVKEADPLSNGSVMIFNTSALPHLYQIKQLQALANYSIGVSCMNEIGWSAVSPWILASTTEGAPSVAPLNVTVFLNESSDNVDIRWMKPPTKQQDGELVGYRISHVWQSAGISKELLEEVGQNGSRARISVQVHNATCTVRIAAVTRGGVGPFSDPVKIFIPAHGWVDYAPSSTPAPGNADPVLIIFGCFCGFILIGLILYISLAIRKRVQETKFGNAFTEEDSELVVNYIAKKSFCRRAIELTLHSLGVSEELQNKLEDVVIDRNLLILGKILGEGEFGSVMEGNLKQEDGTSLKVAVKTMKLDNSSQREIEEFLSEAACMKDFSHPNVIRLLGVCIEMSSQGIPKPMVILPFMKYGDLHTYLLYSRLETGPKHIPLQTLLKFMVDIALGMEYLSNRNFLHRDLAARNCMLRDDMTVCVADFGLSKKIYSGDYYRQGRIAKMPVKWIAIESLADRVYTSKSDVWAFGVTMWEIATRGMTPYPGVQNHEMYDYLLHGHRLKQPEDCLDELYEIMYSCWRTDPLDRPTFSVLRLQLEKLLESLPDVRNQADVIYVNTQLLESSEGLAQGSTLAPLDLNIDPDSIIASCTPRAAISVVTAEVHDSKPHEGRYILNGGSEEWEDLTSAPSAAVTAEKNSVLPGERLVRNGVSWSHSSMLPLGSSLPDELLFADDSSEGSEVLM", "values": [{"measurement": "degradation_or_half_life", "setting": "[4]", "result": "decreases"}, {"measurement": "other: ubiquitination", "setting": "[5]", "result": "increases"}, {"measurement": "localisation_or_trafficking", "setting": "[6]", "result": "increases"}, {"measurement": "oligomerisation", "setting": "[7]", "result": "abolishes"}]}, {"protein": "MerTK: N454Q (protein) parent chain: MGPAPLPLLLGLFLPALWRRAITEAREEAKPYPLFPGPFPGSLQTDHTPLLSLPHASGYQPALMFSPTQPGRPHTGNVAIPQVTSVESKPLPPLAFKHTVGHIILSEHKGVKFNCSISVPNIYQDTTISWWKDGKELLGAHHAITQFYPDDEVTAIIASFSITSVQRSDNGSYICKMKINNEEIVSDPIYIEVQGLPHFTKQPESMNVTRNTAFNLTCQAVGPPEPVNIFWVQNSSRVNEQPEKSPSVLTVPGLTEMAVFSCEAHNDKGLTVSKGVQINIKAIPSPPTEVSIRNSTAHSILISWVPGFDGYSPFRNCSIQVKEADPLSNGSVMIFNTSALPHLYQIKQLQALANYSIGVSCMNEIGWSAVSPWILASTTEGAPSVAPLNVTVFLNESSDNVDIRWMKPPTKQQDGELVGYRISHVWQSAGISKELLEEVGQNGSRARISVQVHNATCTVRIAAVTRGGVGPFSDPVKIFIPAHGWVDYAPSSTPAPGNADPVLIIFGCFCGFILIGLILYISLAIRKRVQETKFGNAFTEEDSELVVNYIAKKSFCRRAIELTLHSLGVSEELQNKLEDVVIDRNLLILGKILGEGEFGSVMEGNLKQEDGTSLKVAVKTMKLDNSSQREIEEFLSEAACMKDFSHPNVIRLLGVCIEMSSQGIPKPMVILPFMKYGDLHTYLLYSRLETGPKHIPLQTLLKFMVDIALGMEYLSNRNFLHRDLAARNCMLRDDMTVCVADFGLSKKIYSGDYYRQGRIAKMPVKWIAIESLADRVYTSKSDVWAFGVTMWEIATRGMTPYPGVQNHEMYDYLLHGHRLKQPEDCLDELYEIMYSCWRTDPLDRPTFSVLRLQLEKLLESLPDVRNQADVIYVNTQLLESSEGLAQGSTLAPLDLNIDPDSIIASCTPRAAISVVTAEVHDSKPHEGRYILNGGSEEWEDLTSAPSAAVTAEKNSVLPGERLVRNGVSWSHSSMLPLGSSLPDELLFADDSSEGSEVLM", "values": [{"measurement": "oligomerisation", "setting": "[1]", "result": "decreases"}, {"measurement": "degradation_or_half_life", "setting": "[2]", "result": "decreases"}, {"measurement": "localisation_or_trafficking", "setting": "[3]", "result": "increases"}]}, {"protein": "MerTK: glucose deprivation (protein) parent chain: MGPAPLPLLLGLFLPALWRRAITEAREEAKPYPLFPGPFPGSLQTDHTPLLSLPHASGYQPALMFSPTQPGRPHTGNVAIPQVTSVESKPLPPLAFKHTVGHIILSEHKGVKFNCSISVPNIYQDTTISWWKDGKELLGAHHAITQFYPDDEVTAIIASFSITSVQRSDNGSYICKMKINNEEIVSDPIYIEVQGLPHFTKQPESMNVTRNTAFNLTCQAVGPPEPVNIFWVQNSSRVNEQPEKSPSVLTVPGLTEMAVFSCEAHNDKGLTVSKGVQINIKAIPSPPTEVSIRNSTAHSILISWVPGFDGYSPFRNCSIQVKEADPLSNGSVMIFNTSALPHLYQIKQLQALANYSIGVSCMNEIGWSAVSPWILASTTEGAPSVAPLNVTVFLNESSDNVDIRWMKPPTKQQDGELVGYRISHVWQSAGISKELLEEVGQNGSRARISVQVHNATCTVRIAAVTRGGVGPFSDPVKIFIPAHGWVDYAPSSTPAPGNADPVLIIFGCFCGFILIGLILYISLAIRKRVQETKFGNAFTEEDSELVVNYIAKKSFCRRAIELTLHSLGVSEELQNKLEDVVIDRNLLILGKILGEGEFGSVMEGNLKQEDGTSLKVAVKTMKLDNSSQREIEEFLSEAACMKDFSHPNVIRLLGVCIEMSSQGIPKPMVILPFMKYGDLHTYLLYSRLETGPKHIPLQTLLKFMVDIALGMEYLSNRNFLHRDLAARNCMLRDDMTVCVADFGLSKKIYSGDYYRQGRIAKMPVKWIAIESLADRVYTSKSDVWAFGVTMWEIATRGMTPYPGVQNHEMYDYLLHGHRLKQPEDCLDELYEIMYSCWRTDPLDRPTFSVLRLQLEKLLESLPDVRNQADVIYVNTQLLESSEGLAQGSTLAPLDLNIDPDSIIASCTPRAAISVVTAEVHDSKPHEGRYILNGGSEEWEDLTSAPSAAVTAEKNSVLPGERLVRNGVSWSHSSMLPLGSSLPDELLFADDSSEGSEVLM", "values": [{"measurement": "oligomerisation", "setting": "[7]", "result": "abolishes"}]}]}
